Assay [1] addresses ovalbumin 323-329 peptide (OVA323-339) in the context of I-A(b) (murine) (UniProt P01012).
Assay [2] deals with myelin oligodendrocyte glycoprotein 35-55 peptide (MOG35-55) in the context of I-A(b) (mouse; murine) (UniProt P14434).
Assay [3] shares this target. The source holds these as a separate data set.
Assay [4] concerns the target ovalbumin 323-329 peptide (OVA323-339) in the context of I-A(b) (murine) (UniProt P01012). The source holds these as a separate data set.

With 2D2 TCR, the Cytotoxicity (specific lysis of peptide-pulsed splenocytes, in vitro, 3 days) in assay [1] was 3%; in assay [2] it was 17%. The Ratio of MOG/OVA pulsed APC (in vivo cytotoxicity, spleen after 48 hours) (ratio of MOG/OVA pulsed APC) in assay [3] turned out to be 0.7.

With OT-II TCR, the values for the Cytotoxicity (specific lysis of peptide-pulsed splenocytes, in vitro, 3 days) in assay [1] and in assay [2] were 32% and 4%, respectively. Besides, the Ratio of MOG/OVA pulsed APC (in vivo cytotoxicity, spleen after 48 hours) (ratio of MOG/OVA pulsed APC) in assay [4] is 6.2.
